In patent US20260242478A1 (published 2026):
Where no end group is shown, it is not given here.

B1: Phage-703 (peptide)
peptide: YCEGHSLEYMGKCL
modifications: cysteine pairing not given here; also: displayed on phage by fusion to pIII, pIII and linker sequence not given here
B2: Phage-704 (peptide)
peptide: YCDGHAPEYMEKCL
modifications: cysteine pairing not given here; also: displayed on phage by fusion to pIII, pIII and linker sequence not given here
B3: Phage-747 (peptide)
peptide: YCAGHSPEFMEKCL
notes: tested as crude clonal phage supernatant
B4: Phage-739 (peptide)
peptide: YCDGHSPDYIWKCL
notes: as for B3
B5: Phage-702 (peptide)
peptide: YCEGHSIQYMAKCL
modifications: cysteine pairing not given here; also: displayed on phage by fusion to pIII, pIII and linker sequence not given here
B6: Phage-706 (peptide)
peptide: YCDGHEAQYMSKCL
modifications: cysteine pairing not given here; also: displayed on phage by fusion to pIII, pIII and linker sequence not given here
B7: Phage-700 (peptide)
peptide: YCEGHAREHMAKCL
modifications: cysteine pairing not given here; also: displayed on phage by fusion to pIII, pIII and linker sequence not given here
B8: Phage-741 (peptide)
peptide: YCMGHQPEYMQKCL
notes: as for B3
B9: Phage-707 (peptide)
peptide: YCDGHSHEYMEKCL
modifications: cysteine pairing not given here; also: displayed on phage by fusion to pIII, pIII and linker sequence not given here
B10: Phage-740 (peptide)
peptide: YCMGHAPEYMEKCL
notes: as for B3
B11: Phage-738 (peptide)
peptide: YCEGHRAEYMEKCL
notes: as for B3
B12: Phage-745 (peptide)
peptide: YCEGHSMEYMAKCL
notes: as for B3
B13: Phage-744 (peptide)
peptide: YCDGHSPEYMTKCL
notes: as for B3
B14: Phage-705 (peptide)
peptide: YCDGHMGVYYWKCL
modifications: cysteine pairing not given here; also: displayed on phage by fusion to pIII, pIII and linker sequence not given here
B15: Phage-701 (peptide)
peptide: YCEGHSPEYMTKCL
modifications: cysteine pairing not given here; also: displayed on phage by fusion to pIII, pIII and linker sequence not given here
B16: Phage-743 (peptide)
peptide: YCDGHSAEYLAKCL
notes: as for B3
B17: Phage-737 (peptide)
peptide: YCSGHAPEYMAKCL
notes: as for B3
B18: Phage-746 (peptide)
peptide: YCAGHMPEYIDKCL
notes: as for B3
B19: Phage-708 (peptide)
peptide: YCQGHLPEYMSKCL
modifications: cysteine pairing not given here; also: displayed on phage by fusion to pIII, pIII and linker sequence not given here
B20: Phage-742 (peptide)
peptide: YCDGHMPEYMEKCL
notes: as for B3
B21: Phage-699 (peptide)
peptide: YCEGHRPEYMQKCL
modifications: cysteine pairing not given here; also: displayed on phage by fusion to pIII, pIII and linker sequence not given here
B22: Phage-736 (peptide)
peptide: YCDGHASEYMWKCL
notes: as for B3

What was measured:
[1] = biological target: Anti-CD28 Fab (SEQ ID NOs: 696, 697); test: phage binding ELISA; biotinylated anti-CD28 Fab on neutravidin plate, clonal phage supernatant, anti-M13 HRP detection
Target sequence in this assay (VH, as listed by the source, chain 1 of 2): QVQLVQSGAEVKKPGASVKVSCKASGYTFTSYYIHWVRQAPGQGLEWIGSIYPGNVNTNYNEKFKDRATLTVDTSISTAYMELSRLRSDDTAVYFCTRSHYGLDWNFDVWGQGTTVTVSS
Target sequence in this assay (VL, as listed by the source, chain 2 of 2): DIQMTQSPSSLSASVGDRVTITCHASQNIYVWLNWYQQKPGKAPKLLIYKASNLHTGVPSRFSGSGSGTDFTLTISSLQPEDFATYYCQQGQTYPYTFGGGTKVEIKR

[2] = biological target: Anti-CD28 Fab (SEQ ID NOs: 696, 697); test: phage binding ELISA; captured anti-CD28 Fab pre-incubated with CD28 antigen as competitor, anti-M13 HRP detection
Target sequence in this assay (VH, as listed by the source, chain 1 of 2): as the sequence (VH, as listed by the source, chain 1 of 2) above
Target sequence in this assay (VL, as listed by the source, chain 2 of 2): as the sequence (VL, as listed by the source, chain 2 of 2) above

[3] = biological target: T1, Anti-CD28 Fab (SEQ ID NOs: 696, 697); test: phage ELISA; Fab-coated wells pre-incubated with CD28 antigen as competitor, anti-M13 HRP detection;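 further: crude clonal phage supernatants screened by ELISA, comparing wells pre-treated with CD28 antigen in blocker against wells given blocker only, bound phage read via HRP-linked anti-M13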
T1 construct: In the phage ELISA the Fab was biotinylated and captured on neutravidin coated plates
T1 sequence (VH, as listed by the source, chain 1 of 2): as the sequence (VH, as listed by the source, chain 1 of 2) above
T1 sequence (VL, as listed by the source, chain 2 of 2): as the sequence (VL, as listed by the source, chain 2 of 2) above
Procedure: (§1) After panning, phage infected bacteria were plated out and colonies picked into 96 well blocks. Clonal phage was then amplified and separated from bacterial cells via centrifugation.
(§2) Clonal phage were harvested as crude supematants and screened via standard ELISAs. […] Prior to the addition of clonal phage, wells were incubated with blocking buffer and CD28 antigen or blocking buffer alone. Without washing or aspirating, clonal phage supematants were then added to the wells and incubated for a short time. Wells were then washed followed by detection of bound phage using a horse radish conjugated anti-M13 antibody. Clonal phage of interest were then sent for sequence analysis.

[4] = biological target: T1, Anti-CD28 Fab (SEQ ID NOs: 696, 697); test: phage ELISA; biotinylated anti-CD28 Fab on neutravidin plate, clonal phage supernatant, anti-M13 HRP detection;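 further: crude supernatants of single phage clones picked after panning were screened for binding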
[5] = biological target: Anti-CD28 Fab (SEQ ID NOs: 696, 697); test: phage binding ELISA; biotinylated anti-CD28 Fab on neutravidin plate, clonal phage supernatant, anti-M13 HRP detection; remark: listed apart in the source
Target sequence in this assay (VH, as listed by the source, chain 1 of 2): as the sequence (VH, as listed by the source, chain 1 of 2) above
Target sequence in this assay (VL, as listed by the source, chain 2 of 2): as the sequence (VL, as listed by the source, chain 2 of 2) above

[6] = biological target: Anti-CD28 Fab (SEQ ID NOs: 696, 697); test: phage binding ELISA on anti-CD28 Fab; wells first incubated with CD28 antigen as competitor
Target sequence in this assay (VH, as listed by the source, chain 1 of 2): as the sequence (VH, as listed by the source, chain 1 of 2) above
Target sequence in this assay (VL, as listed by the source, chain 2 of 2): as the sequence (VL, as listed by the source, chain 2 of 2) above
Procedure: as §1, §2

| Binder | Anti-CD28 Fab signal in the presence of CD28 (phage binding ELISA) [3] | Anti-CD28 Fab signal (phage binding ELISA) [4] | Anti-CD28 Fab signal (phage binding ELISA) [5] | Anti-CD28 Fab signal in the presence of CD28 [6] | other results |
| --- | --- | --- | --- | --- | --- |
| B1 |  |  |  |  | Anti-CD28 Fab (SEQ ID NOs: 696, 697) signal [1]: 2.02; Anti-CD28 Fab signal in the presence of CD28 [2]: 0.09 |
| B2 |  |  |  |  | Anti-CD28 Fab (SEQ ID NOs: 696, 697) signal [1]: 2.01; Anti-CD28 Fab signal in the presence of CD28 [2]: 0.09 |
| B3 | 0.06 | 1.91 |  |  |  |
| B4 | 0.1 | 1.93 |  |  |  |
| YCEGHLSEYMAKCL [Phage-734] |  |  | 1.94 | 0.2 |  |
| YCEGHLPIYLSKCL [Phage-735] |  |  | 1.94 | 0.08 |  |
| YCAGHLEIYMNKCL [Phage-733] |  |  | 1.94 | 0.07 |  |
| B5 |  |  |  |  | Anti-CD28 Fab (SEQ ID NOs: 696, 697) signal [1]: 2.02; Anti-CD28 Fab signal in the presence of CD28 [2]: 0.06 |
| B6 |  |  |  |  | Anti-CD28 Fab (SEQ ID NOs: 696, 697) signal [1]: 2.01; Anti-CD28 Fab signal in the presence of CD28 [2]: 0.09 |
| B7 |  |  |  |  | Anti-CD28 Fab (SEQ ID NOs: 696, 697) signal [1]: 2.02; Anti-CD28 Fab signal in the presence of CD28 [2]: 0.08 |
| B8 | 0.08 | 1.93 |  |  |  |
| YCDGHLEQYRAKCL [Phage-723] |  |  | 1.96 | 0.08 |  |
| YCDGHSPEHIRKCL [Phage-732] |  |  | 1.94 | 0.11 |  |
| B9 |  |  |  |  | Anti-CD28 Fab (SEQ ID NOs: 696, 697) signal [1]: 2.01; Anti-CD28 Fab signal in the presence of CD28 [2]: 0.06 |
| B10 | 0.07 | 1.93 |  |  |  |
| B11 | 0.06 | 1.93 |  |  |  |
| B12 | 0.07 | 1.92 |  |  |  |
| YCEGHLSQYMEKCL [Phage-731] |  |  | 1.95 | 0.08 |  |

| Binder | Anti-CD28 Fab signal in the presence of CD28 (phage binding ELISA) [3] | Anti-CD28 Fab signal (phage binding ELISA) [4] | Anti-CD28 Fab signal (phage binding ELISA) [5] | Anti-CD28 Fab signal in the presence of CD28 [6] | other results |
| --- | --- | --- | --- | --- | --- |
| YCDGHLIEYMYKCL [Phage-728] |  |  | 1.95 | 0.09 |  |
| B13 | 0.07 | 1.93 |  |  |  |
| B14 |  |  |  |  | Anti-CD28 Fab (SEQ ID NOs: 696, 697) signal [1]: 2.01; Anti-CD28 Fab signal in the presence of CD28 [2]: 0.09 |
| B15 |  |  |  |  | Anti-CD28 Fab (SEQ ID NOs: 696, 697) signal [1]: 2.02; Anti-CD28 Fab signal in the presence of CD28 [2]: 0.08 |
| YCAGHSVEYMAKCL [Phage-725] |  |  | 1.96 | 0.08 |  |
| YCDGHLVEYMSKCL [Phage-730] |  |  | 1.95 | 0.08 |  |
| YCDGHSALYMWKCL [Phage-726] |  |  | 1.96 | 0.08 |  |
| YCDGHSSEYMIKCL [Phage-727] |  |  | 1.95 | 0.06 |  |
| B16 | 0.08 | 1.93 |  |  |  |
| B17 | 0.06 | 1.94 |  |  |  |
| B18 | 0.06 | 1.92 |  |  |  |
| YCDGHLPEYLGKCL [Phage-724] |  |  | 1.96 | 0.08 |  |
| B19 |  |  |  |  | Anti-CD28 Fab (SEQ ID NOs: 696, 697) signal [1]: 2.01; Anti-CD28 Fab signal in the presence of CD28 [2]: 0.06 |
| YCDGHSAEYMQKCL [Phage-729] |  |  | 1.95 | 0.07 |  |
| B20 | 0.09 | 1.93 |  |  |  |
| B21 |  |  |  |  | Anti-CD28 Fab (SEQ ID NOs: 696, 697) signal [1]: 2.03; Anti-CD28 Fab signal in the presence of CD28 [2]: 0.11 |
| B22 | 0.06 | 1.94 |  |  |  |
